In patent US5861501:

Test system: influenza endonuclease (purified viral ribonucleoprotein, low-pH treated; polymerase-associated cap-dependent endonuclease) (Influenza virus)
Experiment: competition
Conditions: 5'-triphosphate; 2'-OMe on G1; 3'-terminal 3'-dA; filter retention competition; binding is cap dependent; scale: % of labeled capped 10-mer binding competed at up to 150 nM

GUAUUAAUAA [5'-triphosphorylated 10-mer (uncapped)]
binding signal: 10
